The values that follow come from publication PMC3855604.

Read-outs that look alike come from different tables or passages of the source.

What is called koff is the rate constant with which the complex falls apart. A high value points to a short-lived complex. For orientation: kon means the rate constant with which the complex forms. Lower therefore signals slow association. Usually Kd stands for a measure of binding affinity in units of concentration. The low end stands for tighter binding, the high end for weaker binding. For orientation: KM means the concentration of substrate that gives half-maximal velocity.

The target of data set [1] is non-glycosylated Q123K PAI-1 (human) (UniProt P05121).
The target of data set [2] is wild type glycosylated PAI-1 (human) (UniProt P05121).
The target of data set [3] is wild type recombinant non-glycosylated PAI-1 (human) (UniProt P05121).
Data set [4] concerns the target S119C (NBD S119C) PAI-1 (human) (UniProt P05121). In words: stopped-flow fluorimetry.
Data set [5] deals with complex of NBD S119C PAI-1 with S195A tcuPA (UniProt P05121). The data set is described as follows: stopped-flow fluorimetry.
In data set [6] the target is S119C (NBD S119C) PAI-1 (human) (UniProt P05121). In words: stopped-flow fluorimetry. This is another data set of the same source.
The target of data set [7] is complex of wt rPAI-1 with Vn (UniProt P05121).
Data set [8] addresses non-glycosylated Q123K PAI-1 (human) (UniProt P05121). In words: competition read by tPA amidolytic activity.
The target in data set [9] is M447C (NBD P1′) PAI-1 (human). The data set is described as follows: stopped-flow fluorimetry.
In data set [10] the target is non-glycosylated Q123K PAI-1 (human) (UniProt P05121). In words: competition read by tPA amidolytic activity. This is another data set of the same source.
Data set [11] deals with wild type glycosylated PAI-1 (human) (UniProt P05121). The data set is described as follows: competition read by tPA amidolytic activity.
The test system of another data set is M447C (NBD P1′) PAI-1. In words: stopped-flow fluorimetry. The conditions noted are these: other: stopped-flow fluorimetry.

In [1], Monomeric vitronectin (natural protein) showed a kL2 (spontaneous inactivation of Q123K PAI-1 with Vn), 37°C of 0.00018 s⁻¹; a kL2 (spontaneous inactivation of Q123K PAI-1 with Vn), 50°C of 0.0081 s⁻¹; a kL2 (spontaneous inactivation of Q123K PAI-1 with Vn), 55°C of 0.0109 s⁻¹; a kL2 (spontaneous inactivation of Q123K PAI-1 with Vn), 60°C of 0.0222 s⁻¹. In [2], the kL2 (spontaneous inactivation of PAI-1 with Vn), 37°C was 3.6e-05 s⁻¹; the kL2 (spontaneous inactivation of PAI-1 with Vn), 50°C was 0.00043 s⁻¹; the kL2 (spontaneous inactivation of PAI-1 with Vn), 55°C amounted to 0.001 s⁻¹; the kL2 (spontaneous inactivation of PAI-1 with Vn), 60°C was found to be 0.0049 s⁻¹. The kL2 (spontaneous inactivation of PAI-1 with Vn), 60°C in [3] is 0.011 s⁻¹. Besides, in data set [4], the koff was 0.0022 to 0.0072 s⁻¹ and the kon was determined as 7.2e+06 M⁻¹ s⁻¹. For the same substance, the association rate constant (kon) in data set [5] was found to be 1.33e+07 M⁻¹ s⁻¹. Also, in [6], the kon stood at 7.5e+06 M⁻¹ s⁻¹.
In data set [7], “S195A two chain urokinase (S356A; S195A in chymotrypsin numbering) (enzyme)” registered a kL4 (spontaneous inactivation of PAI-1 with Vn and S195A tcuPA), 37°C of 3.4e-06 s⁻¹; a kL4 (spontaneous inactivation of PAI-1 with Vn and S195A tcuPA), 50°C of 0.00011 s⁻¹; a kL4 (spontaneous inactivation of PAI-1 with Vn and S195A tcuPA), 55°C of 0.00012 s⁻¹; a kL4 (spontaneous inactivation of PAI-1 with Vn and S195A tcuPA), 60°C of 0.00042 s⁻¹. In data set [1], this substance returned a kL3 (spontaneous inactivation of Q123K PAI-1 with S195A tcuPA), 37°C of 5e-05 s⁻¹; a kL3 (spontaneous inactivation of Q123K PAI-1 with S195A tcuPA), 50°C of 0.00066 s⁻¹; a kL3 (spontaneous inactivation of Q123K PAI-1 with S195A tcuPA), 60°C of 0.00122 s⁻¹. In data set [2], the kL3 (spontaneous inactivation of PAI-1 with S195A tcuPA), 50°C came to 0.00024 s⁻¹ and the kL3 (spontaneous inactivation of PAI-1 with S195A tcuPA), 60°C amounted to 0.0025 s⁻¹. This substance also gave a dissociation constant Kd in data set [8] of 1.3 nM. Also, in data set [9], the dissociation constant Kd is 24.6 nM, the off-rate (koff) worked out at 0.15 s⁻¹ and the kon is 6.1e+06 M⁻¹ s⁻¹. The same substance came in with an equilibrium dissociation constant (Kd) in data set [10] of 1.3 nM. This substance also registered an equilibrium dissociation constant (Kd) in data set [11] of 1.2 nM.
Take recombinant two chain urokinase: the Michaelis constant (KM) in the data set on M447C (NBD P1′) PAI-1 was determined as 10.2 ± 2.2 µM.
“recombinant two chain urokinase (enzyme)”: in data set [9], the kon came out at 2.68e+07 M⁻¹ s⁻¹.
